Measured values as given in patent publication CN111303279A (INST PATHOGEN BIOLOGY CAMS, dated 2020).

Assays:
[1] = target: SARS-CoV-2病毒的包膜刺突糖蛋白(即S蛋白) (SARS-CoV-2, UniProt P0DTC2 14-1273); assay: cell-based or functional assay
SARS-CoV-2刺突蛋白RBD区重组蛋白 [2] = target: T1, SARS-CoV-2刺突蛋白RBD区重组蛋白 (SARS-CoV-2, UniProt P0DTC2 319-541); assay: SPR, BIAcore T-200, RBD amine-coupled on CM5 chip, VHH in flow
SARS-CoV-2刺突蛋白RBD区重组蛋白 [3] = target: T1, SARS-CoV-2刺突蛋白RBD区重组蛋白; assay: SPR, BIAcore T-200; range told of the group, this end tied to 4D8 by table 1
SARS-CoV-2刺突蛋白RBD区重组蛋白 [4] = target: T1, SARS-CoV-2刺突蛋白RBD区重组蛋白; assay: SPR, BIAcore T-200; range told of the group, this end tied to 5F8 by table 1

Binder | 抑制SARS-CoV-2假型病毒感染 IC50 (luciferase, Calu-3细胞) [1] [µg/mL] | Kd (SARS-CoV-2刺突蛋白RBD区重组蛋白 [2]) [nM] | koff (SARS-CoV-2刺突蛋白RBD区重组蛋白 [2]) [s⁻¹] | kon (SARS-CoV-2刺突蛋白RBD区重组蛋白 [2]) [M⁻¹ s⁻¹] | Kd (SARS-CoV-2刺突蛋白RBD区重组蛋白 [3]) [nM] | Kd (SARS-CoV-2刺突蛋白RBD区重组蛋白 [4]) [nM]
单域抗体1E2 (VHH) VHH: QVQLVESGGGLVQPGGSLRLSCAASGADAFVIIGGWFRQAPGKGLEAVAAIAWTDQHEYYADSVKGRFTISRDNSKNTLYLQMNSLRAEDTAVYYCAAQDSAYIKSKGSRAYEYWGQGTQVTVSS | 0.31 | 21.1 | 0.00518 | 245000 |  | 
单域抗体3F11 (VHH) VHH: QVQLVESGGGLVQPGGSLRLSCAASGGNAAERMAGWFRQAPGKGLEAVAAIYYAKFGPYYADSVKGRFTISRDNSKNTLYLQMNSLRAEDTAVYYCAAEAFVQSPYSGSHTTKYWGQGTQVTVSS | 0.0038 | 3.15 | 0.00675 | 2.14e+06 |  | 
单域抗体4D8 (VHH) VHH: QVQLVESGGGLVQPGGSLRLSCAASGNIDSTRYHGWFRQAPGKGLEAVAAIKGVWPEDYYADSVKGRFTISRDNSKNTLYLQMNSLRAEDTAVYYCAADQYEWWVPGEVGPYLYWGQGTQVTVSS | 0.247 | 34 | 0.00613 | 180000 | 33.9 | 
单域抗体5F8 (VHH) VHH: QVQLVESGGGLVQPGGSLRLSCAASGRQAVVFGWFRQAPGKGLEAVAAIHVPAKNRYYADSVKGRFTISRDNSKNTLYLQMNSLRAEDTAVYYCAAHYEFNDFVWQGYSSDYWGQGTQVTVSS | 0.00338 | 0.716 | 0.000211 | 295000 |  | 0.71
单域抗体2F2 (VHH) VHH: QVQLVESGGGLVQPGGSLRLSCAASGLAQSKWAYGWFRQAPGKGLEAVAAIDVATGPWYYADSVKGRFTISRDNSKNTLYLQMNSLRAEDTAVYYCAAHHIPTKHPAFPDFRDYWGQGTQVTVSS | 0.0235 | 0.846 | 0.000313 | 370000 |  | 
